Patent publication US8969060B2, “Modified glucose dehydrogenase” (Ikeda Food Research Co., Ltd., priority 2011, dated 2015)

Tests used:
[1] = Relative enzymatic activity of GLD (DCIP/1-m-PMS, plate reader, yeast culture supernatant) with 1,10-phenanthroline present; format: biochemical; conditions: site-specific mutants, inhibitor final concentration 1 mM
In short: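 Inhibitor at 1 mM final substitutes for the methanol in the reagent, and the sample rate is expressed as % of the inhibitor-free blank. Rates come from ΔA600/min of DCIP with glucose and 1-m-PMS at pH 7.0, using supernatants of YPD-grown yeast clones (24 h, 30° C.).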

[2] = Relative enzymatic activity of GLD (DCIP/1-m-PMS, plate reader, yeast culture supernatant) with proflavin hydrochloride present; format: biochemical; conditions: site-specific mutants, inhibitor final concentration 1 mM
In short: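 Culture supernatant diluted and mixed with reagent of phosphate buffer pH 7.0, 1.0 M D-glucose, 3 mM DCIP, 3 mM 1-m-PMS and methanol (0.1:1:0.14:0.2:0.06). DCIP absorbance decrease at 600 nm followed; proflavin hydrochloride in methanol replaced methanol at 1 mM final. Activity expressed as % of inhibitor-free blank.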

Row | Molecule | Relative Activity [%] 1,10-Phenanthroline [1] | Relative Activity [%] Proflavin hydrochloride [2]
1 | K354S: modified GLD: SEQ ID NO: 1 with substitution K354S (protein, listed as Aspergillus terreus, SIGNAL (1)..(19)) MLGKLSFLSALSLAVAAPLSNSTSAKYDYIVIGGGTSGLAVANRLSEDPNVNVLILEAGGSVWNNPNVTNVDGYGLAFGSDIDWQYQSVNQPYGGNLSQVLRAGKALGGTSTINGMAYTRAEDVQIDAWETIGNTGWTWKNLFPYYRKSENFTVPTKSQTSLGASYEAGAHGHEGPLDVAFTQIESNNLTTYLNRTFQGMGLPWTEDVNGGKMRGFNLYPSTVNLEEYVREDAARAYYWPYKSRPNLHVLLNTFANRIVWDGEAHDGHITASGVEITSRNGTVRVINAEKEVIVSAGALKSPAILELSGIGNPSVLDKHNIPVKVNLPTVGENLQDQVNSHMDASGNTSISGTSAVSYPDVYDVFGDEAESVAKQIRANLKQYAADTAKANGNIMKAADLERLFEVQYDLIFKGRVPIAEVLNYPGSATSVFAEFWALLPFARGSVHIGSSNPAEFPVINPNYFMLDWDAKSYVAVAKYIRRSFESYPLSSIVKESTPGYDVIPRNASEQSWKEWVFDKNYRSNFHPVGTAAMMPREIGGVVDERLNVYGTTNVRVVDASVLPFQVCGHLVSTLYAVAERAADLIKADAGRR | 71.6% | 21.3%
2 | Y424E: modified GLD: SEQ ID NO: 1 with substitution Y424E (protein, listed as Aspergillus terreus, SIGNAL (1)..(19)) MLGKLSFLSALSLAVAAPLSNSTSAKYDYIVIGGGTSGLAVANRLSEDPNVNVLILEAGGSVWNNPNVTNVDGYGLAFGSDIDWQYQSVNQPYGGNLSQVLRAGKALGGTSTINGMAYTRAEDVQIDAWETIGNTGWTWKNLFPYYRKSENFTVPTKSQTSLGASYEAGAHGHEGPLDVAFTQIESNNLTTYLNRTFQGMGLPWTEDVNGGKMRGFNLYPSTVNLEEYVREDAARAYYWPYKSRPNLHVLLNTFANRIVWDGEAHDGHITASGVEITSRNGTVRVINAEKEVIVSAGALKSPAILELSGIGNPSVLDKHNIPVKVNLPTVGENLQDQVNSHMDASGNTSISGTKAVSYPDVYDVFGDEAESVAKQIRANLKQYAADTAKANGNIMKAADLERLFEVQYDLIFKGRVPIAEVLNEPGSATSVFAEFWALLPFARGSVHIGSSNPAEFPVINPNYFMLDWDAKSYVAVAKYIRRSFESYPLSSIVKESTPGYDVIPRNASEQSWKEWVFDKNYRSNFHPVGTAAMMPREIGGVVDERLNVYGTTNVRVVDASVLPFQVCGHLVSTLYAVAERAADLIKADAGRR | 87.5% | 37.1%
3 | Y424K: modified GLD: SEQ ID NO: 1 with substitution Y424K (protein, listed as Aspergillus terreus, SIGNAL (1)..(19)) MLGKLSFLSALSLAVAAPLSNSTSAKYDYIVIGGGTSGLAVANRLSEDPNVNVLILEAGGSVWNNPNVTNVDGYGLAFGSDIDWQYQSVNQPYGGNLSQVLRAGKALGGTSTINGMAYTRAEDVQIDAWETIGNTGWTWKNLFPYYRKSENFTVPTKSQTSLGASYEAGAHGHEGPLDVAFTQIESNNLTTYLNRTFQGMGLPWTEDVNGGKMRGFNLYPSTVNLEEYVREDAARAYYWPYKSRPNLHVLLNTFANRIVWDGEAHDGHITASGVEITSRNGTVRVINAEKEVIVSAGALKSPAILELSGIGNPSVLDKHNIPVKVNLPTVGENLQDQVNSHMDASGNTSISGTKAVSYPDVYDVFGDEAESVAKQIRANLKQYAADTAKANGNIMKAADLERLFEVQYDLIFKGRVPIAEVLNKPGSATSVFAEFWALLPFARGSVHIGSSNPAEFPVINPNYFMLDWDAKSYVAVAKYIRRSFESYPLSSIVKESTPGYDVIPRNASEQSWKEWVFDKNYRSNFHPVGTAAMMPREIGGVVDERLNVYGTTNVRVVDASVLPFQVCGHLVSTLYAVAERAADLIKADAGRR | 71.9% | 52.5%
4 | Y424N: modified GLD: SEQ ID NO: 1 with substitution Y424N (protein, listed as Aspergillus terreus, SIGNAL (1)..(19)) MLGKLSFLSALSLAVAAPLSNSTSAKYDYIVIGGGTSGLAVANRLSEDPNVNVLILEAGGSVWNNPNVTNVDGYGLAFGSDIDWQYQSVNQPYGGNLSQVLRAGKALGGTSTINGMAYTRAEDVQIDAWETIGNTGWTWKNLFPYYRKSENFTVPTKSQTSLGASYEAGAHGHEGPLDVAFTQIESNNLTTYLNRTFQGMGLPWTEDVNGGKMRGFNLYPSTVNLEEYVREDAARAYYWPYKSRPNLHVLLNTFANRIVWDGEAHDGHITASGVEITSRNGTVRVINAEKEVIVSAGALKSPAILELSGIGNPSVLDKHNIPVKVNLPTVGENLQDQVNSHMDASGNTSISGTKAVSYPDVYDVFGDEAESVAKQIRANLKQYAADTAKANGNIMKAADLERLFEVQYDLIFKGRVPIAEVLNNPGSATSVFAEFWALLPFARGSVHIGSSNPAEFPVINPNYFMLDWDAKSYVAVAKYIRRSFESYPLSSIVKESTPGYDVIPRNASEQSWKEWVFDKNYRSNFHPVGTAAMMPREIGGVVDERLNVYGTTNVRVVDASVLPFQVCGHLVSTLYAVAERAADLIKADAGRR | 89.9% | 55.6%
5 | Y424D: modified GLD: SEQ ID NO: 1 with substitution Y424D (protein, listed as Aspergillus terreus, SIGNAL (1)..(19)) MLGKLSFLSALSLAVAAPLSNSTSAKYDYIVIGGGTSGLAVANRLSEDPNVNVLILEAGGSVWNNPNVTNVDGYGLAFGSDIDWQYQSVNQPYGGNLSQVLRAGKALGGTSTINGMAYTRAEDVQIDAWETIGNTGWTWKNLFPYYRKSENFTVPTKSQTSLGASYEAGAHGHEGPLDVAFTQIESNNLTTYLNRTFQGMGLPWTEDVNGGKMRGFNLYPSTVNLEEYVREDAARAYYWPYKSRPNLHVLLNTFANRIVWDGEAHDGHITASGVEITSRNGTVRVINAEKEVIVSAGALKSPAILELSGIGNPSVLDKHNIPVKVNLPTVGENLQDQVNSHMDASGNTSISGTKAVSYPDVYDVFGDEAESVAKQIRANLKQYAADTAKANGNIMKAADLERLFEVQYDLIFKGRVPIAEVLNDPGSATSVFAEFWALLPFARGSVHIGSSNPAEFPVINPNYFMLDWDAKSYVAVAKYIRRSFESYPLSSIVKESTPGYDVIPRNASEQSWKEWVFDKNYRSNFHPVGTAAMMPREIGGVVDERLNVYGTTNVRVVDASVLPFQVCGHLVSTLYAVAERAADLIKADAGRR | 87.1% | 37.2%
6 | Y424C: modified GLD: SEQ ID NO: 1 with substitution Y424C (protein, listed as Aspergillus terreus, SIGNAL (1)..(19)) MLGKLSFLSALSLAVAAPLSNSTSAKYDYIVIGGGTSGLAVANRLSEDPNVNVLILEAGGSVWNNPNVTNVDGYGLAFGSDIDWQYQSVNQPYGGNLSQVLRAGKALGGTSTINGMAYTRAEDVQIDAWETIGNTGWTWKNLFPYYRKSENFTVPTKSQTSLGASYEAGAHGHEGPLDVAFTQIESNNLTTYLNRTFQGMGLPWTEDVNGGKMRGFNLYPSTVNLEEYVREDAARAYYWPYKSRPNLHVLLNTFANRIVWDGEAHDGHITASGVEITSRNGTVRVINAEKEVIVSAGALKSPAILELSGIGNPSVLDKHNIPVKVNLPTVGENLQDQVNSHMDASGNTSISGTKAVSYPDVYDVFGDEAESVAKQIRANLKQYAADTAKANGNIMKAADLERLFEVQYDLIFKGRVPIAEVLNCPGSATSVFAEFWALLPFARGSVHIGSSNPAEFPVINPNYFMLDWDAKSYVAVAKYIRRSFESYPLSSIVKESTPGYDVIPRNASEQSWKEWVFDKNYRSNFHPVGTAAMMPREIGGVVDERLNVYGTTNVRVVDASVLPFQVCGHLVSTLYAVAERAADLIKADAGRR | 73.7% | 45.9%
